Article PMC11303627 (Cancer Immunology, Immunotherapy : CII, 2024)

Molecular target: T1, human TF-Fc (Homo sapiens, UniProt P13726)
T1 construct: tissue factor (TF; CD142), human; Construct limits may be in Supplementary file1; also called human tissue factor Fc fusion protein; HuTF; source: Expi293F, transfected (pcDNA3.1(-), Genscript), purified from supernatant (Protein A; for SPR also SEC on Superdex 200 after 2 mM DTT)
Experiment: SPR; human TF-Fc amine-coupled to a CM5 chip (target 500 RU); scFvFc flowed over at 18.75-3.125 nM in PBS-EP (0.01% Tween20, 300 mM NaCl PBS, pH 7.4), 30 µL/min, contact 180 s, dissociation 600 s; 25 °C; Biacore X100; global fit, 1:1 binding model
Details: both partners purified

T1 sequence (P13726 33-251): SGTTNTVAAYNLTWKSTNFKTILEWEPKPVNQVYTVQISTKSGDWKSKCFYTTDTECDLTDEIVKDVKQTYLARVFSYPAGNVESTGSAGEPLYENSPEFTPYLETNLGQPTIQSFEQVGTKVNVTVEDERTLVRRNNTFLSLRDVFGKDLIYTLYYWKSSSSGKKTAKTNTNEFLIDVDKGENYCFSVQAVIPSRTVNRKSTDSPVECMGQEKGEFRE

B1: hATR-5 scFvFc (scFv, V domains shown)
VH: QVQLLESGAVLARPGTSVKISCKASGFNIKDYYMHWVKQRPGQGLEWIGGNDPANGHSMYDPKFQGRVTITADTSTSTVFMELSSLRSEDTAVYYCARDSGYAMDYWGQGTLVTVSS
VL: DIQMTQSPSSLSASVGDRVTITCKASQDIKSFLSWYQQKPEKAPKSLIYYATSLADGVPSRFSGSGSGTDYTLTISSLQPEDFATYYCLQHGESPYTFGGGTKVEIK
notes: source: Expi293F, transfected (pcDNA3.1(-)), purified from supernatant (Protein A, then SEC on Superdex 200 after 2 mM DTT)
- Kd: 460 pM

B2: TF8-5G9 anti-TF scFvFc (scFv, V domains shown)
VH: EIQLQQSGAELVRPGALVKLSCKASGFNIKDYYMHWVKQRPEQGLEWIGLIDPENGNTIYDPKFQGKASITADTSSNTAYLQLSSLTSEDTAVYYCARDNSYYFDYWGQGTTLTVSS
VL: DIKMTQSPSSMYASLGERVTITCKASQDIRKYLNWYQQKPWKSPKTLIYYATSLADGVPSRFSGSGSGQDYSLTISSLESDDTATYYCLQHGESPYTFGGGTKLEIN
notes: also called TF8-5G9 scFvFc; TF85G9 scFvFc; source: Expi293F, transfected (pcDNA3.1(-)), purified from supernatant (Protein A, then SEC on Superdex 200 after 2 mM DTT)
- Kd: 370 pM
